The target of one assay is T1, DCC (Homo sapiens, UniProt P43146).
T1 construct: expressed in transfected cells
As to the kind of experiment: ECD binding assay on cells overexpressing DCC. As to the method: FIG. 6: ROBO1 extracellular domains. (A) Cartoon showing domain structure of the ROBO1 extracellular domain (ECD) panel (B) Western blot of ROBO1 ECDs and control DCC ECDs in lysates and conditioned media of HEK cells overexpressing plasmid constructs. (C) Dot blot assay of media (left) and quantification (right) of ROBO1-Ig5 secretion from HEK cells overexpressing Robo-Ig5 in the absence and presence of heparin (300 ng/ml). […] (F) ECD binding assay using ROBO1-Ecto and cells overexpressing ROBO2 (top, green) and cells overexpressing DCC (bottom, green). ROBO1-Ecto-HA (red) binds to ROBO2, but not to DCC.

The target in the next assay is T2, ROBO2 (Homo sapiens, UniProt Q9HCK4).
T2 construct: expressed in transfected cells; host or cells: Cos7
T2 sequence (Q9HCK4 22-1378): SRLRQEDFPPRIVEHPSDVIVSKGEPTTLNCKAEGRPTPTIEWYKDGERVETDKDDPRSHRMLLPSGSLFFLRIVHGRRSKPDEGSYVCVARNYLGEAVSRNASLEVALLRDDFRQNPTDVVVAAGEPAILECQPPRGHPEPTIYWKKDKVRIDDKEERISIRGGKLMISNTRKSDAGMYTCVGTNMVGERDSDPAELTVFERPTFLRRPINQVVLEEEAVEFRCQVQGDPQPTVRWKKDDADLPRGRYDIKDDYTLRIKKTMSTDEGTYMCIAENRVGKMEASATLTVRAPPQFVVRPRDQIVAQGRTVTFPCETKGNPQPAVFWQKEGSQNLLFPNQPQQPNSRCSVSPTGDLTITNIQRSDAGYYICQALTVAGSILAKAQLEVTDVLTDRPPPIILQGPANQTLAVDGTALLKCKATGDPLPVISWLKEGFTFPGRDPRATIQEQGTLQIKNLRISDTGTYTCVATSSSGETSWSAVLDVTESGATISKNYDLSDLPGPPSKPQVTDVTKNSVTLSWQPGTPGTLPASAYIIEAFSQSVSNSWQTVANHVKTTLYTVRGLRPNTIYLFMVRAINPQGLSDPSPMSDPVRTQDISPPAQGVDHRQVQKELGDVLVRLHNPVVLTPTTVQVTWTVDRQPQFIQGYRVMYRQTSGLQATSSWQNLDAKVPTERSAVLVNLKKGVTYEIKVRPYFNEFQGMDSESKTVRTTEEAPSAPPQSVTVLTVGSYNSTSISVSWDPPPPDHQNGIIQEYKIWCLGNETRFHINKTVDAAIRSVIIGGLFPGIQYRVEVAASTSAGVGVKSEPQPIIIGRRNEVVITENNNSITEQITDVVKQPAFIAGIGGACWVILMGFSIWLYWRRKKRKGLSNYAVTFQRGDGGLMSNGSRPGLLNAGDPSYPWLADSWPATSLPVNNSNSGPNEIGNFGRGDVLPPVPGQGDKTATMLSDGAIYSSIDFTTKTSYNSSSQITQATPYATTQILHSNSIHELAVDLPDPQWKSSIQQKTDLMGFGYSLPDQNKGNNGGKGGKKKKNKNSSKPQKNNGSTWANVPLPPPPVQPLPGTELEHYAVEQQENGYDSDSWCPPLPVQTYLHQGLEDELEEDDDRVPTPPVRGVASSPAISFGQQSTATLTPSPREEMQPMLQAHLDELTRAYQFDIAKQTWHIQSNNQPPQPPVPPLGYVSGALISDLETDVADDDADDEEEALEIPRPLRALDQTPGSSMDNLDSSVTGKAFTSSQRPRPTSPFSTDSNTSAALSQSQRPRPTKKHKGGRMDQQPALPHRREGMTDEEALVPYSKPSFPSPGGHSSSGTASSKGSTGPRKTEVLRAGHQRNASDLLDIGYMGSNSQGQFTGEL
As to the kind of experiment: ECD binding assay on Cos7 cells overexpressing Robo2. The settings on record: Cos7 cells overexpressing Robo2, sodium azide, 1H incubation, immunostaining. As for the experimental part: Soluble ROBO1 ECD fragments ROBO1-Ig2 and ROBO1-Ig5 generated in the presence of heparin were used in a dome assay. […] Because treatment with heparin had only a modest positive effect on ROBO1 ECD production and a deleterious effect on their function (FIG. 6C, E), the use of heparin to generate soluble ROBO1 ECD fragments was not pursued. The ability of a ROBO1 ECD fragment to bind ROBO2 receptors was tested by overexpressing Robo2 in Cos7 cells, treating cells with sodium azide to prevent protein internalization and then incubating cells with ROBO1-Ecto-HA 1H prior to fixation and immunostaining.

In assay [1] the test system is HC11 cells. As to the kind of experiment: Bodipy 493/503 neutral lipid staining of differentiated HC11 cells. Type of assay: cell-based, mouse. The settings on record: Bodipy493/503 staining. As for the experimental part:
To determine whether the ROBO1 ECD fragments influence NOTCH4 signaling, HC11 assays were performed to monitor dome formation using both phase contrast microscopy (FIG. 7A, B, top), and fluorescent microscopy using hydrophobic Bodipy493/503 that binds neutral lipids (FIG. 7A, B, bottom). Undifferentiated (Undif) cells are distinct with interconnecting processes visible in phase contrast and little/no Bodipy staining (FIG. 7A). Upon differentiation and prolactin treatment, small lipid droplets accumulate that appear as dark-rimmed circles in phase contrast (FIG. 7B, top) and as punctate green circles by Bodipy staining (FIG. 7B, bottom).
Place cells in a half-volume of buffer or media. Make a 2× solution (2 μg/ml=7.6 μM) of Invitrogen™ BODIPY™ 493/503 dye in 0.5 mL volume of the same pre-warmed buffer or media (no cells, no BSA or serum) and mix vigorously to mechanically emulsify this solution. Immediately add to the solution of cells, mix and incubate up to 30 min.

Another assay has as its system Notch signaling. As to the kind of experiment: RT-qPCR of Notch effector expression (Hey1, Hes1) in HC11 cells. In kind it is cell-based, mouse. The settings on record: HC11 cells treated with ROBO1-ECD fragments. As to the method:
To examine the effects of ROBO1-ECD fragments on Notch signaling, HC11 cells were treated with ROBO1-ECD fragments and Notch effector expression assessed. […] In addition, HC11 cells were treated with ROBO-Ig5 during differentiation. These cells were then fractionated and a Western blot performed to detect HES1 and NOTCH4-ICD (FIG. 8B).
Total RNA was harvested from cells lysed in TRIzol reagent (Invitrogen) and phase separated according to manufacturer's protocol with an additional overnight RNA precipitation stem in ethanol (Macias et al., 2011). The RNA was further purified with TURBO DNase (Ambion) treatment. Total RNA quality was analyzed by agarose gel electrophoresis and quantified with an ND-1000 spectrophotometer (NanoDrop). cDNA libraries were prepared from 1 μg of total RNA using iScript cDNA synthesis kit (BioRad). Quantitative RT-PCR was performed in triplicates using light Cycler 480 SYBR Green I Master (Roche) and quantified using BioRad CFX'Connect Real-Time System and CFX Manager software (BioRad). Results were normalized to GAPDH.
Background: Real-time PCR tracks product formation cycle by cycle.

The subject of assay [2] is HC11 cells. As to the kind of experiment: HC11 dome assay (milk dome formation on differentiation in DIP media). In kind it is cell-based, mouse. The settings on record: HC11 cells, increasing ECD concentration. As for the experimental part:
To investigate ROBO1 function during alveologenesis, Robo1 gene expression was inhibited in HC11 cells (Robo1 KD). HC11 cells are a well-established, prolactin-responsive model of lactation,^19,20. Cells in which Robo1 gene expression was not inhibited are referred to as WT or Robo1+/+ herein. To measure milk production, cells were grown to confluence and then primed by treatment with epidermal growth factor (EGF, 10 ng/ml). The EGF is administered for three days in combination with charcoal-stripped fetal bovine serum, followed by one day of charcoal-stripped fetal bovine serum in the absence of EGF. These primed cells are then differentiated by treatment with dexamethasone (1 μg/ml), insulin (5 μg/ml) and prolactin (Prl, 5 μg/ml) media (DIP media) for between 3 and 5 days (FIG. 2A). Differentiation (Dif) results in the development of milk-filled domes (FIG. 2B). […] If the cells were left undifferentiated (Undif), there was little dome formation in either WT or Robo1−/− cells (FIG. 2B). Next, tissue from Robo1 knockout mice (Robo1−/−) and wild type mice (WT or Robo1+/+) mice was analyzed. Mammary glands were harvested from pregnant day 18 WT and Robo1−/− animals and alveologenesis analyzed by serially sectioning, carmine staining and then quantifying the area occupied by alveoli in sections located at top, middle and bottom portions of the tissue.
Dome number formation in response to a titration of ROBO1 ECD fragments was quantified. […] A bovine ROBO1-Ig5 construct was also tested in this assay and, as with the rat constructs, more domes were formed in response to treatment with higher concentrations of […] (FIG. 7H).
HC11 cells were grown in RPMI 1640 media (Gibco) supplemented with 10% fetal bovine serum (BioFluid Technologies), 5 μg/mL insulin (Sigma), and 10 ng/ml epidermal growth factor (EGF; Sigma). To induce differentiation in HC11 cells, confluent plates were given fresh media (RPMI 1640 media supplemented with 5% charcoal-stripped fetal bovine serum (BioFluid Technologies), 5 μg/mL insulin, and 10 ng/ml epidermal growth factor (EGF; Sigma) for 3 days followed by 24 hours of priming in priming medium (RPMI 1640 media supplemented with 5% charcoal-stripped fetal bovine serum (BioFluid Technologies), and 5 μg/mL insulin. After priming, DIP medium (RPMI 1640 media supplemented with 5% charcoal-stripped fetal bovine serum (BioFluid Technologies), 10^−6 M dexamethasone (Sigma), 5 μg/mL insulin, and 5 μg/mL prolactin (National Hormone and Peptide program) was added with fresh media every 24 hours.

Assay [3] deals with HC11 cells. As to the kind of experiment: Western blot analysis of WAP and PLIN2 in HC11 cells. In kind it is cell-based, mouse. The settings on record: ECD titration. As to the method: To determine whether the promotion of dome formation also results in higher milk production, HC11 cells were differentiated in the presence or absence of ROBO1-ECD fragments that were added to cells simultaneously with DIP media. Cells were harvested and the expression of WAP and Lalba assessed by RT-qPCR. […] WAP expression levels were not increased in cells treated with DCC-Ig4 (FIG. 7K). Next, Western blot analysis of WAP and PLIN2 was performed on cells treated with ROBO1-Ig5 and ROBO1-Ecto.
Protein lysates were prepared by directly lysing adherent cells in 1× sample buffer supplemented with 5% beta-mercaptoethanol and boiled for 5 minutes. Protein lysate was resolved by SDS-PAGE and transferred to a PVDF for 90 minutes at 400 mA or overnight at 30 mA. Primary antibodies were used at the concentration indicated in Table 1 and incubated overnight at 4° C. HRP conjugated secondary antibodies (Jackson Labs) were used at 1:3000 and incubated for 45 minutes at room temp. All proteins were detected using Clarity ECL (BioRad) using a BioRad Chemi-Doc MP Imager and quantified using ImageLab software as previously described a.

“Also recorded” adds a separate entry of the source.

T1 sequence (P43146 26-1447, species assumed): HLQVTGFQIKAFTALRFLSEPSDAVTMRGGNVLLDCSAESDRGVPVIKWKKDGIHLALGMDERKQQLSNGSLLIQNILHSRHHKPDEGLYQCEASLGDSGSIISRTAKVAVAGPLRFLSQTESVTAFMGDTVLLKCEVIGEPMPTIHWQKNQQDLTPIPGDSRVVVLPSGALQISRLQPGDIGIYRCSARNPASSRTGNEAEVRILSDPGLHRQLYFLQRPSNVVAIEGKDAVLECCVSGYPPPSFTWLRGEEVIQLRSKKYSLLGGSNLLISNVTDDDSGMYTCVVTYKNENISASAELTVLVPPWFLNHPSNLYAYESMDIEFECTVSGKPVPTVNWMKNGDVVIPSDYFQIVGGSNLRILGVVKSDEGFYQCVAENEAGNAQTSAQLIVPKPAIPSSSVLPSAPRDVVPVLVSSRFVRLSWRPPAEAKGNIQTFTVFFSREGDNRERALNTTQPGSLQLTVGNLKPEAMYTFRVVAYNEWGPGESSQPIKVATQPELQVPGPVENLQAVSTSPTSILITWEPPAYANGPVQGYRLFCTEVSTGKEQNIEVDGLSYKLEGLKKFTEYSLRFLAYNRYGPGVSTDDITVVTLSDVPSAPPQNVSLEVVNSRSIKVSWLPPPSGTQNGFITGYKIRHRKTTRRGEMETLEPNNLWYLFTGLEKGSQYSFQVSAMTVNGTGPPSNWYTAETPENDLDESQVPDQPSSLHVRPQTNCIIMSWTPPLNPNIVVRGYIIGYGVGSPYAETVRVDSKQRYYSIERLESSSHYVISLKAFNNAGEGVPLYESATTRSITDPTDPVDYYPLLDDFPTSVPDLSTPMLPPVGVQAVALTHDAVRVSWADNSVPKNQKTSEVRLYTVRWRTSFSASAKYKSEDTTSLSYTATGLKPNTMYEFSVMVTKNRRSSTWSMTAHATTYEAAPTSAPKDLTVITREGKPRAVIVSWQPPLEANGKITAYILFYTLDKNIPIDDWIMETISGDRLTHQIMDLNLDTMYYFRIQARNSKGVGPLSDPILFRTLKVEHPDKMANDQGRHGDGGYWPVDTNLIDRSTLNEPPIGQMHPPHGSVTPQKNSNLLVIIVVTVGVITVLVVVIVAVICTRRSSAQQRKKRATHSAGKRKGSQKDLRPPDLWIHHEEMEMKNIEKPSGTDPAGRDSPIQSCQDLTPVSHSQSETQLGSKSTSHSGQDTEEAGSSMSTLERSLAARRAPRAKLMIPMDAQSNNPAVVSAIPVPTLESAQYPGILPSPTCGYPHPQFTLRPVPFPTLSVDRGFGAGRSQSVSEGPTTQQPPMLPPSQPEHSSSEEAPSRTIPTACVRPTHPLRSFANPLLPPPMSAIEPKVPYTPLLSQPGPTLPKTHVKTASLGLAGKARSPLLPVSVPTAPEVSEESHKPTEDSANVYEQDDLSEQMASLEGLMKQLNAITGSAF

B1: ROBO1-Ecto-HA: ROBO1-Ecto fused to HA (hemagglutinin) tag (protein)
chain: SRLRQEDFPPRIVEHPSDLIVSKGEPATLNCKAEGRPTPTIEWYKGGERVETDKDDPRSHRMLLPSGSLFFLRIVHGRKSRPDEGVYICVARNYLGEAVSHNASLEVAILRDDFRQNPSDVMVAVGEPAVMECQPPRGHPEPTISWKKDGSPLDDKDERITIRGGKLMITYTRKSDAGKYVCVGTNMVGERESEVAELTVLERPSFVKRPSNLAVTVDDSAEFKCEARGDPVPTVRWRKDDGELPKSRYEIRDDHTLKIRKVTAGDMGSYTCVAENMVGKAEASATLTVQEPPHFVVKPRDQVVALGRTVTFQCEATGNPQPAIFWRREGSQNLLFSYQPPQSSSRFSVSQTGDLTVTNVQRSDVGYYICQTLNVAGSIITKAYLEVTDVIADRPPPVIRQGPVNQTVAVDGTLTLSCVATGSPVPTILWRKDGVLVSTQDSRIKQLESGVLQIRYAKLGDTGRYTCTASTPSGEATWSAYIEVQEFGVPVQPPRPTDPNLIPSAPSKPEVTDVSKNTVTLLWQPNLNSGATPTSYIIEAFSHASGSSWQTVAENVKTETFAIKGLKPNAIYLFLVRAANAYGISDPSQISDPVKTQDVPPTTQGVDHKQVQRELGNVVLHLHNPTILSSSSVEVHWTVDQQSQYIQGYKILYRPSGASHGESEWLVFEVRTPTKNSVVIPDLRKGVNYEIKARPFFNEFQGADSEIKFAKTLEEAPSAPPRSVTVSKNDGNGTAILVTWQPPPEDTQNGMVQEYKVWCLGNETRYHINKTVDGSTFSVVIPSLVPGIRYSVEVAASTGAGPGVKSEPQF
modifications: left off: small tags and cut ends
notes: ROBO1-Ecto fused to HA (hemagglutinin) tag
Take B1: the “binding to DCC” value in the assay with DCC is “not to DCC”. Moreover, the “binding to ROBO2” value in the assay with ROBO2 is “binds”.

B2: ROBO1-Ecto: recombinant soluble ROBO1 construct comprising the entire extracellular domain (protein)
chain: B1 chain
modifications: left off: small tags and cut ends
notes: recombinant soluble ROBO1 construct comprising the entire extracellular domain
Take B2: in the assay on HC11 cells [1], the “number of cells completely surrounded by lipid droplets” value was “higher number of cells completely surrounded by lipid droplets”. Moreover, in the assay on Notch signaling, the Hes1 expression entry is listed as “lower expression; also recorded: decreased” and the Hey1 expression result is “lower expression; also recorded: decreased”. Besides, the “dome formation in response to a titration of ECD fragments” value with HC11 cells [2] is listed as “higher rates of dome formation”. In the assay with HC11 cells [3], the PLIN2 protein expression result is listed as “approximately two-fold; also recorded: increased” and the WAP protein expression entry is “approximately two-fold; also recorded: increased”.

B3: DCC-Ig2: extracellular domain of Deleted in Colorectal Cancer comprising two Ig domains, HA tagged, negative control (protein, listed as Rattus norvegicus)
chain: FTSLHFVSEPSDAVTMRGGNVLLNCSAESDRGVPVIKWKKDGLILALGMDDRKQQLPNGSLLIQNILHSRHHKPDEGLYQCEASLGDSGSIISRTAKVMVAGPLRFLSQTESITAFMGDTVLLKCEVIGDPMPTIHWQKNQQDLNPIPGDSRVVVLPSGALQISRLQPGDSGVYRCSARNPASTRTGNEAEVRILSDPGL
modifications: HA tag
notes: extracellular domain of Deleted in Colorectal Cancer comprising two Ig domains, HA tagged, negative control
With B3, the “dome formation in response to a titration of ECD fragments” value in the assay with HC11 cells [2] is listed as “not observed”. Besides, the “binding to ROBO2” value with ROBO2 is “does not bind”.

Source of the values: patent publication US12139531B2, “Compositions and methods useful in promoting milk production” (The Regents of the University of California, priority 2019, dated 2024).
